# Source: paper doi:10.1101/2023.01.09.523336
# Molecular target: Cyanophycin synthetase 1 (CphA1) from Tatumella morbirosei DSM 23827 (Tatumella morbirosei DSM 23827)
# Assay: SEC
substance,measurement,value
Cyanophycin synthetase 1 (CphA1) from Tatumella morbirosei DSM 23827 (enzyme),stoichiometry N,4
